Consider one substance from paper PMC3519889.

In data set [1] the test system is NarP (SO3982), phosphorylated (Shewanella oneidensis). The data set can be described thus: EMSA. To be noted: 100 mM Tris/HCl pH 7.4, 20 mM KCl, 10 mM MgCl2, 2 mM DTT, 10% glycerol, 15 C, 60 min, ~2 nM probe, 2 ug poly(dI·dC); 4.8% native PAGE.
Data set [2] deals with NarP(D57N) (NarP#) (Shewanella oneidensis). The data set can be described thus: EMSA. To be noted: no binding up to 2 uM, 100 mM Tris/HCl pH 7.4, 20 mM KCl, 10 mM MgCl2, 2 mM DTT, 10% glycerol, 15 C, 60 min, ~2 nM probe, 2 ug poly(dI·dC), 4.8% native PAGE.

As to nrfA promoter fragment, the binding in data set [1] is below 0.25 µM; in data set [2] (not phosphorylation-treated) it was above 2 µM; in data set [2] (treated with NarQ51-585 and ATP) it was above 2 µM.
